Test results taken from the DeepSol protein solubility set.

Assay: soluble on expression in E. coli; label from the status in PepcDB or PDB records

Sequence | soluble on expression in E. coli
MGSDKIHHHHHHMATELFTWHTLSDTLSDFKSGLSLAQNSGAESLLVLTCSQNNYPEEELNALFHACPLKLFGGIYPMLTLKGDLIKQGALIIGFKEAVDVTLFAQLNQVTNESCLEELITSTLKEKNNFCGQDDFLMFYDALISNIEGFIDCLFEHLDHGINIAGGGAGNLDFIQRHCIFTNSGVHSDAILLVALPRTLNTSVAHGWETFDEPFLVSEAQGQTVQSLNYQPAYEVYCQTIESATEYTFNNTDFFDIAKNFPLGIKDINNNIIVRDPILAKNNHLQCFGNIPINSMVYLLESNIDSLVASTEKAAIALLSKLNKTTITTTMVFDCISRALFMEDEFEKELNVIAEHCHLGALFGVLSLGEIANSQSGAIRLLNKSIVISSW | not soluble
MNRLHRWNWLVLSAALVTLPFTTPTQAAGVSVSQGSSASLSQAELEQMLAPIALYPDSLLSHILIASTYPLELVQAQRWLEDHPKLSVEQVMSRTEDKGWDPSVKALMAFPNVLQKMSEDLDWTQRLGEAFLANEGQVMDGIQSLRQQADKANSLANMDNMAVTRANNQIIIEPVRREVVYVPYYDPRVVYGTWRWGVAYPPVYWQFGGYVGNPYRPSHSYFYWSPGIHISFNYFFSSFHWHRHKVVVIDHHHSHHYRPRERYSVSHGAQPWKHKPEHRRGVAYHHPVVKERYYSDSKYRGRDSHSSGSGQHFTSQYAKSREHQDTRDNRDNQRDDKRHDKDRGNQYSRERTPNLQHTQAELKERRATPMDSSQTHRENYQREHRQKERNDNGRHDNQVRQNQAKTMREQTNDTWQRQYQQREYQSSDQQPRHVETRAQPQRHEARPEVRRPEPQRIEQPRQAQPRQREEVRTRPSESRQHTQCGA | not soluble
AITGATGHLGQQIVAAMRPLVATTELYLGVHTLSKAQVYQQQGLHIAAIDYQQPEQLRAFFQDSDVLIYIPSKSHDSYSRVQEFENVLAAVQQANVHHFLVMGFIADQVNNPFALSAFYGYVPRRLAGSDINYTIVRNALYADPLVPYLPELIERHNVVYPMADQALSFISQADSAAAFAKVATTPDLLQRGRI | not soluble
STQFINKLYASYLREKAYLTAQKHWEKDEIDEQSYQIIQRKYDELLPEAHEILLNMDSLSEVRDTLNKYLTQHQQALLIAGEDSVPFSFKYKDQLGAALYYPDNEGNFIVLVMSRNVYGAEIKE | not soluble
MGHSQSYDLRNPEGGEKTPVRGVRRVSREHQTDAQFSTETAEPFDFREDELRDRIRREQLRKREVELETLRIRQHESREPIIDAYRQNQPAPQGNLYNEFNHYDSMKHASPSDPATYFALKPMTEVNEGRQFSIPTSSTRRYDQVPIDPSPELQRREVPSKQSPPNYPKRSSVFGGRVSPLPRQSEVDPHPMPRYIPPMSPSNPIDDVPPTHVSELHAEKRMIVGIDDELQPEKNNVTYVTVATAAIDNELLHRHPEVGRHPVYVLPAQTSYGASAKRRSSDDEAKNVLPPQNCTVEHCTHVAVNDGSPVVIRKRASQDSIRDKENRLTIPINEDDTENVGEGTNYQNVSKKCFEERLHYDSYMPTLSLRQRPVVSFYDKLH | not soluble
MGSDKIHHHHHHMTTVYSGLISCYNAYPKKHSYRVRRSDKGWHDGAVWYLEKAKIMLRNDNLKIKGLTPEQEENVRAIHAMNPAHILVECATNKSWGGKKELSDLDLDSYKKAADTLYEEGFGLCIRYNRQTSIKEFIQQIVDHIGAAQYDNVETGKQTIKLIRRDYKPEDLPVFNYDNGILSVRDDDSGATDKQPNQVIVKYREPVSNRDDQAIANNIASVRMHGVISKTVEYKGVPTFDLAARLARDLELVASGLTRLKIVFDMRASELKPGDVVRVNLPDRDIVDVVFRVGKLENGNDGEIIATCIQDVFGLPAANYSTQKGESLYIPPDYTANPIQQARLIEVPYHVLPLVLSDAERAFVKPTDCFVWALGAQPTALSVGYDMLVDVGGGYTQTATGSFTPFVRLLEPVSPYQTNIKIKLEGDYAAVAGALALIVDDEIIKIDAVDFKTGTMTVGRGCADTVPQAHKADAVAWCYLLAAGTDESKYTVNERLNVKLLTRTAQQTLDESKAEVLTLTTQQRQARPFCVELGVPRPRRTSGQTDSALGRQHAPRRWRQL | not soluble
MGNQSTSSKGSDTKKEQITVKHQLDKNGTKVPKNPKKVVVFDFGSLDTLDKLGLDDIVAGLPKQVLPKYLSKFKDDKYADVGSLKEPDFDKVAELDPDLIIISARQSESYKEFSKIAPTIYLGVDTAKYMESFKSDAETIGKIFDKEDKVKDELANIDHSIADVKKTAEKLNKNGLVIMANDGKISAFGPKSRYGLIHDVFGVAPADQNIKASTHGQSVSYEYISKTNPDYLFVIDRGTAIGETSSTKQVVENDYVKNVNAVKNGHVIYLDSATWYLSGGGLESMTQMIKEVKDGLEKLEHHHHHH | soluble
MGSDKIHHHHHHMSLFNIFDVSGSGMAAQSIRLNTTASNIANADSVSSSVDKTYRARHPIFEAELNKAHDQQNGTKGVQVRAIVESDKPLLKEYSPSHPMADGDGFIYKPNVNVMEEMADMISASRSYQMNVQVADATKTMLQQTLRMGK | not soluble
MSLEEVIEQLREANEPVPVPLELPDEDQLVEIEEQLFINIPFVFKEFLLTVSDVVYGSLEPVTVTDPQSHTYLPEVCATAWDLGVPRELIPICQDGEDYYCVEEDGTVLLWSAEEELVTEESWESVWHWARDVWLESEGHHHHHH | soluble
MFGLVDAVSFYARAEKVFDPSIRHKPVVVLTNNDGCICAVCPIARQLGVPKFVPYFKVKSFLAKHGVVVRSSNYELYADLSERMMNVIARYSDNHYVYSIDESFLHFKNFSCVDNWHEYGHVIRKAVWRETRLPVGVGFGATLTLAKAANHASKKLSGFDGVAVIDDKASRKEILSRMSLTEVWGIGSKLGKRLSILGLKNGWDLANQSPKAMRGQFGVVVERTVNELNGMPCLQWDEIGQDKQEIFSTRSFGQRVTDGHALKAALSSHASIVGAKVRRQGSLIKRLVIFASSSPHDDSYYKKSVIYEFPIATDNILKLVGAISYVFDNIYRQGVSFYRCGVGGVELENSQFQQQDMFSLSVNNPPLMKCYDQINHRYGRGAVEVAIAEKNEKWAMRRNFLSPRSTSNWSEIPKINCLEHHHHHH | not soluble
MAIETILVINKSGGLIYQRNFTNDEQKLNSNEYLILASTLHGVFAIASQLTPKALQLTQQTNIENTIPYIPYVGMSSNRSDTRNGGGNNNKHTNNEKLGSFKGDDFFKEPFTNWNKSGLRQLCTDQFTMFIYQTLTGLKFVAISSSVMPQRQPTIATTDKPDRPKSTSNLAIQIADNFLRKVYCLYSDYVMKDPSYSMEMPIRSNLFDEKVKKMVENLQ | soluble
GMSIPANNSPVRLALIGAGRWGKNYIRTIAGLPGAALVRLASSNPDNLALVPPGCVIESDWRSVVSAPEVEAVIIATPPATHAEITLAAIASGKAVLVEKPLTLDLAEAEAVAAAAKATGVMVWVEHTQLFNPAWEALKADLTSIGPILAVRSEAGNHGPYRPGGVPMLWDWGAHDVSMVLDLMGRDPDSTSASWAARGEKDGGEAGDVTLTLAFSTVEAHIRLCNTMDKCRRLAVFGEAGTLVMDDRATDKLTLHPPQPDGNWPVGQGHALTVTDEMPLTRAVRLFAGAVRQPEPGPSPLELGLRVVRVLGACS | soluble
MHHHHHHHHIGGDFAVVKAKKSLERRGFGVKRGDKIYLHPLEVVYLQIKGIESFGELEDVLSWAESRMEDFSTYYFVYEDLRDRGNKVKIQGEFLLTKKPYLPISERKTIRMEEIAEKARNFDELRLAVVDEESEITYFRVYEPDMMGEQKEELPEIAGVLSDEYVITKQTEIFSRYFYGSEKGDLVTLSLIESLYLLDLGKLNLLNADREELVKRAREVERNFDRRYEVYRNLKERGFVVKTGFKFGSEFRVYRKVESVDDLPHSEYLVDIADSREIRLIDLARAVRLAQNVRKRMVFAYGKNYLCFERVKV | soluble
HHHHHHSSGLVPRGSGMKETAAAKFERQHMDSPDLGTDDDDKASSSANECISVKGRIYSILKQIGSGGSSKVFQVLNEKKQIYAIKYVNLEEADNQTLDSYRNEIAYLNKLQQHSDKIIRLYDYEITDQYIYMVMECGNIDLNSWLKKKKSIDPWERKSYWKNMLEAVHTIHQHGIVHSDLKPANFLIVDGMLKLIDFGIANQMQPDTTSVVKDSQVGAVNYMPPEAIKDMSSSRENGKSKSKISPKSDVWSLGCILYYMTYGKTPFQQIINQISKLHAIIDPNHEIEFPDIPEKDLQDVLKCCLKRDPKQRISIPELLAHPYVQIQTHPVNQMAKGTTEEMKYVLGQLVGLNSPNSILKAAKTLYEHYSGGESHNSSSSKTFEKKRGKK | soluble
